In patent publication US10954305B2 (Immunomedics, Inc., priority 2016, dated 2021):
Entries after “also recorded” stand apart in the source; their conditions may differ. Like-named read-outs stand apart in the source and are kept apart here.

Assays:
[1] = Phase I/II clinical trial of IMMU-132, immunogenicity; assay type: in vivo, human; settings: repeated dosing
esophageal cancer = assay: Phase I/II clinical trial of IMMU-132, esophageal; assay type: in vivo, human
Capan-1 tumors = assay: CL2 vs CL2A linker, Capan-1 xenograft; assay type: in vivo, mice; settings: 0.2 mg/kg SN-38 twice weekly × 4 weeks
Description: FIG. 4C. […] Capan-1 mice (N=10) were treated with 0.2 mg/kg ADC and tumors measured weekly.

[2] = tested on: Capan-1 human pancreatic cancer xenografts; settings: 1 and 6 h
Description: SN-38 accumulation was determined in nude mice bearing Capan-1 human pancreatic cancer xenografts (−0.06-0.27 g). […] This dose is MTD in mice. […] This dose is well below the MTD in mice.
At 5 different intervals, 3 animals per group were euthanized. […] Serum and tissue homogenates were extracted and analyzed by reversed-phase HPLC (RP-HPLC).

[3] = Phase I/II clinical trial of IMMU-132, pharmacokinetics; settings: for serum hRS7 IgG, Max / serum hRS7 IgG, Min / serum intact ADC, Max / serum intact ADC, Min / serum hRS7 IgG, Mean / serum intact ADC, Mean: 0.5 h after first dose
Description: SN-38 was measured by HPLC.
Blood samples were taken within ˜30 min from the end of the infusion (e.g., peak) and then prior to each subsequent injection (e.g., trough). […] Serum samples from seven patients also were assayed for SN-38 content, both total (representing SN-38 bound to the IgG and free) and free SN-38 (i.e., unbound SN-38).

[4] = biological target: T1, human neonatal receptor (FcRn) (Homo sapiens, UniProt P55899); assay: surface plasmon resonance binding (BIACORE); settings: three independent runs
T1 construct: made in house
Description: (§1) Briefly, rhTrop-2/TACSTD2 (Sino Biological, Inc.) or recombinant human neonatal receptor (FcRn), produced as described (Wang et al., 2011, Drug Metab Dispos 39:1469-77), was immobilized with an amine coupling kit (GE Healthcare; Cat. No. BR-1000-50) on a CM5 sensor chip (GE Healthcare; Cat. #BR-1000-12) following manufacturer's instructions for a low-density chip. […] Each set would make up a separate run on the BIACORE (BIACORE-X; Biacore Inc., Piscataway, N.J.) and data were analyzed using BIAevaluation Software (Biacore Inc., v4.1). Analysis was performed with a 1:1 (Langmuir) Binding Model and Fit, using all five concentration points for each sample run to determine the best fit (lowest χ^2 value). The KD value was calculated using the formula KD=kd1/ka1, where kd1 is the dissociation rate-constant and ka1 is the association-rate constant.

rhTrop-2/TACSTD2 = biological target: T2, rhTrop-2/TACSTD2 (Homo sapiens, UniProt P09758); assay: surface plasmon resonance binding (BIACORE); settings: three independent runs
T2 construct: purchased Sino Biological, Inc
T2 sequence (P09758 27-323): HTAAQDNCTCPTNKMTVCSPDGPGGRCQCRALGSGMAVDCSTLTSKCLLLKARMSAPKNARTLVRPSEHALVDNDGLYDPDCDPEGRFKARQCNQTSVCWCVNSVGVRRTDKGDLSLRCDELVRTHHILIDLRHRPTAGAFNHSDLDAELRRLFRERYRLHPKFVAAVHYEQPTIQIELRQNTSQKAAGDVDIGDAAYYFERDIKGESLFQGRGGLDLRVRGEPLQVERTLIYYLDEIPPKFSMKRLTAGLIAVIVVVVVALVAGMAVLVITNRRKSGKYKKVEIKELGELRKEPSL
Description: as §1

BxPC-3 = assay: ADCC of hRS7-ADCs vs hRS7 IgG; assay type: cell-based, human; settings: 33.3 nM; effector to target ratio 100:1
Description: The ADCC activity of various hRS7-ADC conjugates was determined in comparison to hRS7 IgG (FIG. 3). PBMCs were purified from blood purchased from the Blood Center of New Jersey. A Trop-2-positive human pancreatic adenocarcinoma cell line (BxPC-3) was used as the target cell line with an effector to target ratio of 100:1. […] All were used at 33.3 nM.

recombinant human Trop-2 = biological target: T3, recombinant human Trop-2 (Homo sapiens, UniProt P09758); assay: Trop-2 ELISA; assay type: binding
T3 construct: purchased Sino Biological, Inc. 10428-H09H
T3 sequence (P09758 27-323): T2 sequence (P09758 27-323)
Description: Recombinant human Trop-2 with a His-tag (Sino Biological, Inc., Bejing, China; Cat #10428-H09H) and recombinant mouse Trop-2 with a His-Tag (Sino Biological, Inc., Cat #50922-MO8H) were plated onto Ni-NTA Hissorb strips (Qiagen GmbH Cat #35023) at 1 μg for 1 h at room temperature. The plate was washed four times with PBS-Tween (0.05%) wash buffer. Serial dilutions of hRS7 were made in 1% BSA-PBS dilution buffer to a test range of 0.1 ng/mL to 10 μg/mL. The plates were then incubated for 2 h at room temperature before being washed four times followed by the addition of a peroxidase conjugated secondary antibody (goat anti-human, Fc fragment specific; Jackson Immunoresearch Cat #109-036-098). After a 45-min incubation, the plate was washed and a substrate solution (o-phenylenediamine dihydrochloride (OPD); Sigma, Cat #P828) added to all the wells. Plates were incubated in the dark for 15 min before the reaction was stopped with 4N sulfuric acid. The plates were read at 450 nm on Biotek ELX808 plate reader. Data were analyzed and graphed using Prism GraphPad Software (v4.03) (Advanced Graphics Software, Inc.; Encinitas, Calif.).

T1 sequence (P55899 24-297 limits assumed): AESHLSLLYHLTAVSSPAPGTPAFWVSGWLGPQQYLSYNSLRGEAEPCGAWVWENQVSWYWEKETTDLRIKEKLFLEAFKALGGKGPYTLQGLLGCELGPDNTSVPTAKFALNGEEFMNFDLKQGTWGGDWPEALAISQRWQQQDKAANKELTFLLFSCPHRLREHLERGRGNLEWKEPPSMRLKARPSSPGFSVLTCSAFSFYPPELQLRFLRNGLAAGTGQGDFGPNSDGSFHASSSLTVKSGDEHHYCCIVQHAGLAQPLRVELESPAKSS
T1 sequence (P61769 21-119 partner): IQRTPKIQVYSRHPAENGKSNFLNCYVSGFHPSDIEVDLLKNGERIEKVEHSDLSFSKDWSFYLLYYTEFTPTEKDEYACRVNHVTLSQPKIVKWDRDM

IMMU-132
anti-hRS7 / anti-SN-38 antibody response [1]: No anti-hRS7 or anti-SN-38 antibodies were detected; also recorded: no anti-hRS7 or anti-SN-38 antibody response has been detected; also recorded: none of the patients developed an antibody response to IMMU-132 or SN-38 | anti-hRS7 / anti-SN-38 antibody response ([1]; listed as sacituzumab govitecan): no antibody response to the hRS7 IgG or SN-38 was detected | PD (esophageal cancer; of 4 assessable patients): 1 | PR (esophageal cancer; of 4 assessable patients): 1 | duration of SD (esophageal cancer; patient 25, 18 then 13.5 mg/kg): 30 weeks | PD (small cell lung cancer; of 4 assessable patients): 2 | PR (small cell lung cancer; of 4 assessable patients): 2 | PR (small cell lung cancer; out of 25 assessable patients, 8 or 10 mg/kg): 6 | mice tumor-free at end of study (day 140) (Capan-1 tumors): 50% | free SN-38G lower than free SN-38 in serum [2]: 3- to 7 times | serum hRS7 IgG, Max ([3]; 8 mg/kg): 249.0 µg/mL | serum hRS7 IgG, Min ([3]; 8 mg/kg): 96.0 µg/mL | serum intact ADC, Max ([3]; 8 mg/kg): 169.3 µg/mL | serum intact ADC, Min ([3]; 8 mg/kg): 95.0 µg/mL | serum hRS7 IgG, Mean ([3]; 8 mg/kg, N 7): 193.1 µg/mL | serum intact ADC, Mean ([3]; 8 mg/kg, N 7): 141.5 µg/mL | serum hRS7 IgG, Max ([3]; 10 mg/kg): 285.85 µg/mL | serum hRS7 IgG, Min ([3]; 10 mg/kg): 152.00 µg/mL | serum intact ADC, Max ([3]; 10 mg/kg): 237.39 µg/mL | serum intact ADC, Min ([3]; 10 mg/kg): 144.00 µg/mL | serum hRS7 IgG, Mean ([3]; 10 mg/kg, N 5): 203.35 µg/mL | serum intact ADC, Mean ([3]; 10 mg/kg, N 5): 185.77 µg/mL | serum hRS7 IgG, Max ([3]; 12 mg/kg): 400.0 µg/mL | serum hRS7 IgG, Min ([3]; 12 mg/kg): 168.9 µg/mL | serum intact ADC, Max ([3]; 12 mg/kg): 311.0 µg/mL | serum intact ADC, Min ([3]; 12 mg/kg): 98.0 µg/mL | serum hRS7 IgG, Mean ([3]; 12 mg/kg, N 9): 239.2 µg/mL | serum intact ADC, Mean ([3]; 12 mg/kg, N 9): 183.3 µg/mL | serum hRS7 IgG, Max ([3]; 18 mg/kg): 499.00 µg/mL | serum hRS7 IgG, Min ([3]; 18 mg/kg): 321.48 µg/mL | serum intact ADC, Max ([3]; 18 mg/kg): 423.00 µg/mL | serum intact ADC, Min ([3]; 18 mg/kg): 162.80 µg/mL | serum hRS7 IgG, Mean ([3]; 18 mg/kg, N 3): 409.16 µg/mL | serum intact ADC, Mean ([3]; 18 mg/kg, N 3): 258.27 µg/mL | SN-38 in serum bound to IgG, peak samples ([3]; 30 min after end of infusion): > 96% | SN-38 in serum bound to IgG ([3]; HPLC): > 95% | clearance of conjugate from serum ([3]; human, in vivo): ≤ 3 days | SN-38 bound to IgG, peak sample ([3]; one patient, 12 mg/kg): 4000 ng/mL | free SN-38, 30-min serum ([3]; patient 15): 88 to 102 ng/mL | free SN-38 as share of total SN-38 ([3]; patient 15): 2.4% to 3.6% | total SN-38, 30-min serum ([3]; patient 15, 6th cycle, 6.0 mg/kg): 2,381 ng/mL | total SN-38, 30-min serum ([3]; patient 15, C1D1, 12 mg/kg): 3,930 ng/mL | total SN-38, 30-min serum ([3]; patient 15, C1D2, 9.0 mg/kg): 2,947 ng/mL | SN-38G share of total SN-38+SN-38G ([3]; patient #25, 13.5 mg/kg): 11.6% | total SN-38 (acid-hydrolyzed), average ([3]; patient #25, 13.5 mg/kg, 11 peak samples): 3309.8 ± 601.8 ng/mL | SN-38G share of total unbound SN-38+SN-38G ([3]; patient #25, 18 mg/kg): 14.4% | free SN-38 (non-hydrolyzed) ([3]; patient #25, 18 mg/kg): 155.2 ng/mL | total SN-38 (acid-hydrolyzed) ([3]; patient #25, 18 mg/kg): 5,089 ng/mL | intact conjugate in trough samples ([3]; serum drawn immediately before next dose): no sacituzumab govitecan could be detected

hRS7 IgG
Kd [4]: 92400 ± 5700 pM | Kd (rhTrop-2/TACSTD2): 510 ± 40 pM | specific lysis (ADCC) (BxPC-3): 8.5% | Kd (recombinant human Trop-2): 300 pM
